# Reference: article PMC4470385
# Molecular target: Von Willebrand factor (VWF) (UniProt P04275)
# Experiment: ELISA
row,Substance,Kd [nM]
1,FVIII 336(P4-P3')562 variant (B-domainless) (natural protein),0.82
2,FVIII 336(P4-P3')562/Ala108Ile variant (B-domainless) (natural protein),0.91
3,FVIII Asp519Val/Glu665Val variant (B-domainless) (natural protein),0.9

# Second part, the substance after the results:
row,Kd [nM],Substance
1,1,FVIII 336(P4-P3')562/Ala108Ile/Asp519Val/Glu665Val variant (B-domainless) (natural protein)
2,0.87,FVIII 336(P4-P3')562/Asp519Val/Glu665Val variant (B-domainless) (natural protein)
3,0.97,FVIII Ala108Ile variant (B-domainless) (natural protein)
4,0.95,"WT FVIII (B-domainless factor VIII, lacking residues Gln744-Ser1637) (natural protein)"
